Experimental data published in IntAct's records for PubMed 24469399.

B1: NF-kappa-B essential modulator (Mus musculus), O88522 (parent)
chain: MNKHPWKNQLSEMVQPSGGPAEDQDMLGEESSLGKPAMLHLPSEQGTPETLQRCLEENQELRDAIRQSNQMLRERCEELLHFQVSQREEKEFLMCKFQEARKLVERLSLEKLDLRSQREQALKELEQLKKCQQQMAEDKASVKAQVTSLLGELQESQSRLEAATKDRQALEGRIRAVSEQVRQLESEREVLQQQHSVQVDQLRMQNQSVEAALRMERQAASEEKRKLAQLQAAYHQLFQDYDSHIKSSKGMQLEDLRQQLQQAEEALVAKQELIDKLKEEAEQHKIVMETVPVLKAQADIYKADFQAERHAREKLVEKKEYLQEQLEQLQREFNKLKVGCHESARIEDMRKRHVETPQPPLLPAPAHHSFHLALSNQRRSPPEEPPDFCCPKCQYQAPDMDTLQIHVMECIE

Variants of: B1
Settings: with rnf31_mouse Rnf31, Q924T7
rnf31_mouse Rnf31, Q924T7, sequence (Q924T7 whole entry): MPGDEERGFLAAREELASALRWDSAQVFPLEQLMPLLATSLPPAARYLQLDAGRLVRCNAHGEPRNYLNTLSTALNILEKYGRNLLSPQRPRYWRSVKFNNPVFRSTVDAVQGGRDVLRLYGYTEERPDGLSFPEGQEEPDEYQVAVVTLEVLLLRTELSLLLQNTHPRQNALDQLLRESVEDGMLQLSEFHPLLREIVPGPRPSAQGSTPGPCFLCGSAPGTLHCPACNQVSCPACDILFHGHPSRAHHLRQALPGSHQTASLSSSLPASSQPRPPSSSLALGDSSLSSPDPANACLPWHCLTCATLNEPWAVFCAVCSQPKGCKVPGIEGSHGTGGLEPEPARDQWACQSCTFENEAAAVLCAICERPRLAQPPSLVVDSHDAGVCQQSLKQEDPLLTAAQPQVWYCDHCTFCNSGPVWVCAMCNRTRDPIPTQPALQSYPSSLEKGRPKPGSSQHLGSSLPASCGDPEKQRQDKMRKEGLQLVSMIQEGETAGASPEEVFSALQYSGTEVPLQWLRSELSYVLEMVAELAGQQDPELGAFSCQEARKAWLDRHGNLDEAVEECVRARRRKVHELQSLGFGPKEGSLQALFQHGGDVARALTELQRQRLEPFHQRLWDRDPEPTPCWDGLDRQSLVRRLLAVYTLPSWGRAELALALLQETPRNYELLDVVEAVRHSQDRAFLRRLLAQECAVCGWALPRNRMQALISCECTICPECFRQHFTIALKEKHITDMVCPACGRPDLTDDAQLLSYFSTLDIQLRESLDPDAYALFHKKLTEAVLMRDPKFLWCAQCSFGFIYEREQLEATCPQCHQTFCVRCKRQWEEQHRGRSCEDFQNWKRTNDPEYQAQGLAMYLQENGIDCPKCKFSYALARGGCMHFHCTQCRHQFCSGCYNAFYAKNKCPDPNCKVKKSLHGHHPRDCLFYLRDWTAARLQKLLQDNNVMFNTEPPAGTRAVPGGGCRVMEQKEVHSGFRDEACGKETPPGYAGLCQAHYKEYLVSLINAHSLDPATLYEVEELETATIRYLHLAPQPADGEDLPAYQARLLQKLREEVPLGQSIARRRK

effect of a mutation on the interaction | Variant
disrupting interaction | MNKHPWKNQLSEMVQPSGGPAEDQDMLGEESSLGKPAMLHLPSEQGTPETLQRCLEENQELRDAIRQSNQMLRERCEELLHFQVSQREEKEFLMCKFQEARKLVERLSLEKLDLRSQREQALKELEQLKKCQQQMAEDKASVKAQVTSLLGELQESQSRLEAATKDRQALEGRIRAVSEQVRQLESEREVLQQQHSVQVDQLRMQNQSVEAALRMERQAASEEKRKLAQLQAAYHQLFQDYDSHIKSSKGMQLEDLRQQLQQAEEALVAKAELIDKLKEEAEQHKIVMETVPVLKAQADIYKADFQAERHAREKLVEKKEYLQEQLEQLQREFNKLKVGCHESARIEDMRKRHVETPQPPLLPAPAHHSFHLALSNQRRSPPEEPPDFCCPKCQYQAPDMDTLQIHVMECIE [Q271A]

Variants of: B1
Settings: with rnf31_mouse Rnf31, Q924T7
Remark: another data set of the same source

effect of a mutation on the interaction | Variant
disrupting interaction | MNKHPWKNQLSEMVQPSGGPAEDQDMLGEESSLGKPAMLHLPSEQGTPETLQRCLEENQELRDAIRQSNQMLRERCEELLHFQVSQREEKEFLMCKFQEARKLVERLSLEKLDLRSQREQALKELEQLKKCQQQMAEDKASVKAQVTSLLGELQESQSRLEAATKDRQALEGRIRAVSEQVRQLESEREVLQQQHSVQVDQLRMQNQSVEAALRMERQAASEEKRKLAQLQAAYHQLFQDYDSHIKSSKGMQLEDLRQQLQQAEEALVAKAELIAKLKEEAEQHKIVMETVPVLKAQADIYKADFQAERHAREKLVEKKEYLQEQLEQLQREFNKLKVGCHESARIEDMRKRHVETPQPPLLPAPAHHSFHLALSNQRRSPPEEPPDFCCPKCQYQAPDMDTLQIHVMECIE [Q271A;D275A]

Variants of: B1
Settings: with rnf31_mouse Rnf31, Q924T7
Remark: another data set of the same source

effect of a mutation on the interaction | Variant
disrupting interaction | MNKHPWKNQLSEMVQPSGGPAEDQDMLGEESSLGKPAMLHLPSEQGTPETLQRCLEENQELRDAIRQSNQMLRERCEELLHFQVSQREEKEFLMCKFQEARKLVERLSLEKLDLRSQREQALKELEQLKKCQQQMAEDKASVKAQVTSLLGELQESQSRLEAATKDRQALEGRIRAVSEQVRQLESEREVLQQQHSVQVDQLRMQNQSVEAALRMERQAASEEKRKLAQLQAAYHQLFQDYDSHIKSSKGMQLEDLRQQLQQAEEALVAKQELIAKLKEEAEQHKIVMETVPVLKAQADIYKADFQAERHAREKLVEKKEYLQEQLEQLQREFNKLKVGCHESARIEDMRKRHVETPQPPLLPAPAHHSFHLALSNQRRSPPEEPPDFCCPKCQYQAPDMDTLQIHVMECIE [D275A]
